Target: Tetrahymena Bld10/CEP135 (Tetrahymena thermophila (endogenous in strain SB715))
Test: cryo-EM structure; single-particle analysis of mechanically disrupted (splayed) centrioles isolated from Tetrahymena, 10 mM Hepes pH 7.5; proximal A-C linker (class 1) with adjacent microtubule triplet regions; focused maps 3.6 to 3.8 Å (B-C junction 3.8 and 4.0 Å, A-B junction 5.8 Å); proteins assigned by fitting AlphaFold2 models of MS-detected proteins (COLORES)

stoichiometry N: 2
Substance: Tetrahymena Bld10/CEP135 (natural protein)
